The record followed here is patent US20220135661A1 (University of Pennsylvania, published 2022).

The target in experiment [1] is recombinant mouse preformed α-Synuclein fibrils (mouse, UniProt O55042 1-140). Briefly: cell-based or functional assay.
The target in experiment [2] is T1, recombinant human preformed α-Synuclein fibrils (human, UniProt P37840 1-140). Nature of the experiment: cell-based or functional assay.
The target of experiment [3] is human α-Synuclein (form not stated) (human, UniProt P37840 1-140). Nature of the experiment: direct ELISA; human αSyn against mouse αSyn as reference.
Experiment [4] concerns the target T1, recombinant human preformed α-Synuclein …. Briefly: sandwich ELISA, mAb coated, MJF-R1 reporter; human PFFs against human monomer as reference. The procedure:
FIG. 1A is a pair of graphs depicting the affinity of mAb Syn9063.26.22 for human monomeric (top) and fibrillar (PFF) (bottom) α-Syn measured by sandwich ELISA. 384-well plates were coated with 0.3 μg of the indicated mAb. After blocking, these were incubated with various concentrations of α-Syn monomer or PFFs (expressed as monomer equivalent concentration) as indicated. MJF-R1 was used as a reporter antibody to determine affinity for each form of α-Syn. FIG. 1B is a pair of graphs depicting the affinity of mAb Syn9048.04.07 for human monomeric (top) and fibrillar (PFF) (bottom) α-Syn measured by sandwich ELISA. 384-well plates were coated with 0.3 μg of the indicated mAb. After blocking, these were incubated with various concentrations of α-Syn monomer or PFFs (expressed as monomer equivalent concentration) as indicated. MJF-R1 was used as a reporter antibody to determine affinity for each form of α-Syn. FIG. 1C is a pair of graphs depicting the affinity of mAb Syn9068.13.01 for human monomeric (top) and fibrillar (PFF) (bottom) α-Syn measured by sandwich ELISA. […] After blocking, these were incubated with various concentrations of α-Syn monomer or PFFs (expressed as monomer equivalent concentration) as indicated. […]
The affinity of three mAbs from the 9000 series for human monomeric and fibrillar (PFF) α-Syn was measured by sandwich ELISA. […]
(An ELISA detects its analyte on a solid surface through an enzyme-linked reagent.)

B1: Syn9068.13.01 (antibody, IgG1, V domains shown)
VH: EVHLVESGGGLVQPKGSLKLSCAASGFTFNTYAMHWVRQAPGKGLEWVARIRNKSNNYATYYADSVKDRFTISRDDSQSMLFLQMDNLKTEDTAIYYCVRGGLSPFDYWGQGTTLTVSS
VL: QIVLTQSPAIMSASPGEKVTMTCSASSSVTYMHWYQQKSGTSPKRWIYDTSKLASGVPARFSGSGSGTSYSLTISSMEAEDAATYYCQQWSSNPPTFGGGTKLEIR
notes: also called mAb Syn9068.13.01; MHC993
Consider B1, for which, in experiment [1], the “Inhibition in neuron assay (Ms PFFs)” value was ~90%. The “Inhibition in neuron assay (Hu PFFs)” value in experiment [2] was 85%. Further, in experiment [3], the “Recognition of Hu vs. Ms αSyn (fold)” value was found to be 1 fold.

B2: Syn9048.04.07 (antibody, IgG1, V domains shown)
VH: QVQLQQSGPELVKPGASVRISCKASGYTFTTFYLHWVKQRPGQGLEWIGWIYPVNVKIKYSERFKGKATLTADKSSSTAYMQLGSLTSEDSAVYFCVRGGRGLDYWGQGTTLTVSS
VL: NIMMTQSPSSLAVSAGEKVTMSCKSSQSVLYSSNQKNYLAWYQQKPGQSPKMLIYWASFRESGVPDRFTGSGSGTDFTLTISSVQAEDLAVYYCHQYLSLFTFGSGTKLEIK
notes: also called mAb Syn9048.04.07; MHC992
As to B2, the “Inhibition in neuron assay (Ms PFFs)” value in experiment [1] was > 95%. The “Inhibition in neuron assay (Hu PFFs)” value in experiment [2] is > 95%. For the same molecule, the “Recognition of Hu vs. Ms αSyn (fold)” value in experiment [3] is 1.4 fold. Also, the “Selective binding to PFFs (fold over monomer)” value in experiment [4] amounted to 30 fold.

B3: Syn9063.26.22 (antibody, IgG2b, V domains shown)
VH: QVQLKQSGPGLVQPSQSQSLTCTVSGFSLTSYGVHWVRQPLGKGLEWLGVIWSGGSTDYNAAFISRLSIRKDNSKSQVFFKMNSLQADDTAIYYCARTFTTSTSAWFAYWGQGTLVTVSA
VL: QIVLTQSPAIMSASPGEKVTMTCSASSSVSYMYWYQQKPGSSPRLLIYDTSKLASGVPVRFSGSGSGTSYSLTISRMEAEDAATYYCQQWRSYPPTFGAGTKLELK
notes: also called mAb Syn9063.26.22; MHC978
As to B3, the “Inhibition in neuron assay (Ms PFFs)” value in experiment [1] amounted to 50%. Further, in experiment [2], the “Inhibition in neuron assay (Hu PFFs)” value worked out at 80%. Also, in experiment [3], the “Recognition of Hu vs. Ms αSyn (fold)” value was 1.1 fold. Moreover, in experiment [4], the “Selective binding to PFFs (fold over monomer)” value worked out at 100 fold.
